Square brackets hold non-standard residues; d marks the D form. Ends that are not written are not given here. * marks the point of attachment. Myristoyl = CCCCCCCCCCCCCC(=O)*; pS = N[C@@H](COP(=O)(O)O)C(=O)O
What was measured:
GSK-3β F93A mutant = biological target: T1, GSK-3β F93A mutant (Homo sapiens, UniProt P49841, F93A); assay: In vitro kinase assay, inhibition of the F93A mutant; assay type: biochemical; conditions: FIGS. 2B, 2C
T1 construct: made in house; host or cells: HEK-293 (transient transfection, pCMV4; partial purification on DE-52)
Method: (§1) HEK-293 cells were grown in Dulbecco's Modified Eagle's Medium (DMEM), supplemented with 10% fetal calf serum (FCS), 2 mM glutamine, 100 units/ml penicillin, and 100 μg/ml streptomycin. HEK-293 cells were transiently transfected with indicated constructs, using calcium phosphate method as described [Ilouz et al. (2006) supra]. Cells were lysed in ice-cold buffer G (20 mM Tris-HCl, pH 7.5, 10 mM β-glycerophosphate, 10% glycerol, 1 mM EGTA, 1 mM EDTA, 50 mM NaF, 5 mM sodium pyrophosphate, 0.5 mM orthovanadate, 1 mM benzamidine, 10 μg/ml leupeptin, 5 μg/ml aprotinin, 1 μg/ml pepstatin, and 0.5% Triton X100). Cell extracts were centrifuged for 30 minutes at 15,000×g. […]
(§2) The GSK-3β proteins (WT or mutants) were incubated with indicated substrate in a reaction mixture (50 mM Tris-HCl, pH 7.3, 10 mM magnesium acetate, and 0.01% β-mercaptoethanol) together with 100 μM ^32P[γ-ATP] […] Reactions were stopped by spotting on p81 paper (Whatman) washed with phosphoric acid, and counted for radioactivity as previously described [Ilouz et al. (2006) supra]. In assays from cells overexpressing GSK-3 proteins, the activity of the endogenous GSK-3 that was determined in cells transfected with the pCMV4 vector was subtracted from the activity values obtained for WT and mutants. […]

[1] = test system: GSK-3β mutants Q89A, N95A, R92A, K94A, F93Y and TM (91-93); assay: In vitro kinase assay, inhibition of other GSK-3β mutants; assay type: biochemical, human; conditions: data not shown
Method: as §1, §2

GSK-3β = GSK-3β (Homo sapiens, UniProt P49841)
Method: (§3) The GSK-3β proteins (WT or mutants) were incubated with indicated substrate in a reaction mixture (50 mM Tris-HCl, pH 7.3, 10 mM magnesium acetate, and 0.01% β-mercaptoethanol) together with 100 μM ^32P[γ-ATP] (0.5 μCi/assay) for 15 minutes. Reactions were stopped by spotting on p81 paper (Whatman) washed with phosphoric acid, and counted for radioactivity as previously described [Ilouz et al. (2006) supra]. In assays from cells overexpressing GSK-3 proteins, the activity of the endogenous GSK-3 that was determined in cells transfected with the pCMV4 vector was subtracted from the activity values obtained for WT and mutants.
Purified GSK-3β was subjected to in vitro kinase assays using pIRS-1, p9CREB, and pGS-1 substrate in the presence or absence of L803-mts (100 μM).

GSK-3 = assay: Inhibition of cellular GSK-3 in SH-SY5Y cells (Western blot); assay type: cell-based, human; conditions: 20 or 40 μM, 5 hours, FIG. 8
Method: In an additional assay, human neuroblastoma SH-SY5Y cells, were treated with L803-mts (as set forth in SEQ ID NO:5) or L803F-mts (as set forth in SEQ ID NO:12) (20 or 40 μM) for 5 hours. Cells were collected and lysed in ice-cold buffer G (20 mM Tris pH 7.5, 10 mM β-glycerophosphate, 10% glycerol, 1 mM EGTA, 1 mM EDTA, 50 mM NaF, 5 mM sodium pyrophosphate, 0.5 mM orthovanadate, 1 mM benzamidine, 5 μg/ml leupeptin, 25 μg/ml aprotinin, 5 μg/ml pepstatin, and 0.5% Triton X100). Equal amounts of proteins (30 μg) were subjected to gel electrophoresis, transferred to nitrocellulose membranes, and immunoblotted with the anti-β-catenin antibody or anti-phospho-HSF-1 antibody (heat shock factor-1)(ser 303). FIG. 8 presents the β-catenin levels and phosphorylation levels of HSF-1 (ser 303) as determined by Western blot analysis using specific antibodies, with non-treated cells indicated as control (Con).

pIRS-1 = assay: In vitro kinase assay of GSK-3β mutants with substrate pIRS-1; assay type: biochemical; conditions: mean ± SEM; WT set to 100%
Method: (§4) HEK-293 cells were grown in Dulbecco's Modified Eagle's Medium (DMEM), supplemented with 10% fetal calf serum (FCS), 2 mM glutamine, 100 units/ml penicillin, and 100 μg/ml streptomycin. HEK-293 cells were transiently transfected with indicated constructs, using calcium phosphate method as described [Ilouz et al. (2006) supra]. Cells were lysed in ice-cold buffer G (20 mM Tris-HCl, pH 7.5, 10 mM β-glycerophosphate, 10% glycerol, 1 mM EGTA, 1 mM EDTA, 50 mM NaF, 5 mM sodium pyrophosphate, 0.5 mM orthovanadate, 1 mM benzamidine, 10 μg/ml leupeptin, 5 μg/ml aprotinin, 1 μg/ml pepstatin, and 0.5% Triton X100). Cell extracts were centrifuged for 30 minutes at 15,000×g. Supernatants were collected, and equal amounts of proteins were boiled with SDS sample buffer and subjected to gel electrophoresis (7.5-12% polyacrylamide gel), transferred to nitrocellulose membranes, and immunoblotted with indicated antibodies. For partial purification, cells were lysed in buffer H (20 mM Tris, pH 7.3, 1 mM EGTA, 1 mM EDTA, 1 mM orthovanadate, 25 μg/ml leupeptin, 25 μg/ml aprotinin, and 25 μg/ml pepstatin A, 500 nM microcystine LR, and 0.25% Triton X100). The lysates were centrifuged at 15,000×g. The resulting supernatants were passed through DE-52 (Whatman, Maidstone, England) mini-columns that were equilibrated with buffer H. GSK-3β proteins were eluted with the same buffer containing 0.02 M NaCl. Equal amounts of proteins were used for in vitro kinase assays.
as §3
(§5) The GSK-3β mutants were partially purified by ion exchange chromatography, and their abilities to phosphorylate peptide substrates were tested in in vitro kinase assays. The substrates were: pIRS-1, p9CREB, and pGS-1, phosphorylated peptides derived from the insulin receptor substrate-1 (IRS-1), cAMP responsive element binding protein (CREB), and glycogen synthase, respectively.

p9CREB = assay: In vitro kinase assay of GSK-3β mutants with substrate p9CREB; assay type: biochemical; conditions: mean ± SEM; WT set to 100%
Method: as §4, §3, §5

pGS-1 = assay: In vitro kinase assay of GSK-3β mutants with substrate pGS-1; assay type: biochemical; conditions: mean ± SEM; WT set to 100%
Method: as §4, §3, §5

T1 sequence (P49841 1-433 isoform P49841-2 F93A): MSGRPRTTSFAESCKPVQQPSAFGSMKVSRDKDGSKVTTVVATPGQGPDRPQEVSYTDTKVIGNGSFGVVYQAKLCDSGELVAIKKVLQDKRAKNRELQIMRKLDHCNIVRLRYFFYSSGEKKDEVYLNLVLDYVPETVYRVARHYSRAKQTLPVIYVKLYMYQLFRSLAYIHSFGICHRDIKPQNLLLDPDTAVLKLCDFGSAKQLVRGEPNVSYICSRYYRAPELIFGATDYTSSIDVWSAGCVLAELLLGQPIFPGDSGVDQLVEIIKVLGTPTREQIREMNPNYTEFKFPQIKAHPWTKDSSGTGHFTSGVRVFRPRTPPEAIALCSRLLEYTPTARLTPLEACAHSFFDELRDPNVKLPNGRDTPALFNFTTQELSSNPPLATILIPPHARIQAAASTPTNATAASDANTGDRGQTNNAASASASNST
Sequence of GSK-3β (P49841 1-433 isoform P49841-2): as the sequence (P49841 1-433 isoform P49841-2 F93A) above, with A93F counted along it

Molecule	Substrate phosphorylation (% of WT GSK-3β), pIRS-1 (pIRS-1)	Substrate phosphorylation (% of WT GSK-3β), p9CREB (p9CREB)	Substrate phosphorylation (% of WT GSK-3β), pGS-1 (pGS-1)	further results
KEAPPAPPQS(p)P (KEAPPAPPQ[pS]P) [L803]	–	–	–	inhibition of substrate phosphorylation by F93A (GSK-3β F93A mutant): did not inhibit; inhibition of other GSK-3β mutants [1]: inhibited all other mutants
L803-mts: L803 in which myristic acid was attached to its N-terminal; cell permeable variant (Myristoyl-GKEAPPAPPQ[pS]P)	–	–	–	inhibition of substrate phosphorylation by F93A (GSK-3β F93A mutant): did not inhibit; inhibition of other GSK-3β mutants [1]: inhibit all other mutants; competition with substrates pIRS-1, p9CREB, pGS-1 (GSK-3β; purified GSK-3β, 100 μM, FIG. 2A): competes with various substrates
Lys-Glu-Ala-Pro-Pro-Ala-Pro-Pro-Gln-phosphorylated Ser-Pro-Phe [L803F]	–	–	–	inhibition of substrate phosphorylation at increasing concentrations, compared to L803 (GSK-3β; FIG. 7): improved activity
Myristic-Gly-Lys-Glu-Ala-Pro-Pro-Ala-Pro-Pro-Gln-phosphorylated Ser-Pro-Phe (Myristoyl-GKEAPPAPPQ[pS]PF) [L803F-mts]	–	–	–	phosphorylation levels of HSF-1 (serine 303) (GSK-3): reduced the phosphorylation levels; β-catenin levels (GSK-3): elevation in β-catenin levels
K94A: GSK-3β mutant, K94 replaced by alanine (protein, GSK-3 beta, K94A mutant, GSK-3β mutant, K94 replaced by alanine) MSGRPRTTSFAESCKPVQQPSAFGSMKVSRDKDGSKVTTVVATPGQGPDRPQEVSYTDTKVIGNGSFGVVYQAKLCDSGELVAIKKVLQDKRFANRELQIMRKLDHCNIVRLRYFFYSSGEKKDEVYLNLVLDYVPETVYRVARHYSRAKQTLPVIYVKLYMYQLFRSLAYIHSFGICHRDIKPQNLLLDPDTAVLKLCDFGSAKQLVRGEPNVSYICSRYYRAPELIFGATDYTSSIDVWSAGCVLAELLLGQPIFPGDSGVDQLVEIIKVLGTPTREQIREMNPNYTEFKFPQIKAHPWTKDSSGTGHFTSGVRVFRPRTPPEAIALCSRLLEYTPTARLTPLEACAHSFFDELRDPNVKLPNGRDTPALFNFTTQELSSNPPLATILIPPHARIQAAASTPTNATAASDANTGDRGQTNNAASASASNST	52 ± 19 % of WTGSK-3β	71 ± 4 % of WTGSK-3β	19 ± 14 % of WTGSK-3β	–
K91A: GSK-3β mutant, K91 replaced by alanine (protein, GSK-3 beta, K91A mutant, GSK-3β mutant, K91 replaced by alanine) MSGRPRTTSFAESCKPVQQPSAFGSMKVSRDKDGSKVTTVVATPGQGPDRPQEVSYTDTKVIGNGSFGVVYQAKLCDSGELVAIKKVLQDARFKNRELQIMRKLDHCNIVRLRYFFYSSGEKKDEVYLNLVLDYVPETVYRVARHYSRAKQTLPVIYVKLYMYQLFRSLAYIHSFGICHRDIKPQNLLLDPDTAVLKLCDFGSAKQLVRGEPNVSYICSRYYRAPELIFGATDYTSSIDVWSAGCVLAELLLGQPIFPGDSGVDQLVEIIKVLGTPTREQIREMNPNYTEFKFPQIKAHPWTKDSSGTGHFTSGVRVFRPRTPPEAIALCSRLLEYTPTARLTPLEACAHSFFDELRDPNVKLPNGRDTPALFNFTTQELSSNPPLATILIPPHARIQAAASTPTNATAASDANTGDRGQTNNAASASASNST	140 ± 18 % of WTGSK-3β	161 ± 5 % of WTGSK-3β	119 ± 5 % of WTGSK-3β	–
R92A: GSK-3β mutant, R92 replaced by alanine (protein, GSK-3 beta, R92A mutant, GSK-3β mutant, R92 replaced by alanine) MSGRPRTTSFAESCKPVQQPSAFGSMKVSRDKDGSKVTTVVATPGQGPDRPQEVSYTDTKVIGNGSFGVVYQAKLCDSGELVAIKKVLQDKAFKNRELQIMRKLDHCNIVRLRYFFYSSGEKKDEVYLNLVLDYVPETVYRVARHYSRAKQTLPVIYVKLYMYQLFRSLAYIHSFGICHRDIKPQNLLLDPDTAVLKLCDFGSAKQLVRGEPNVSYICSRYYRAPELIFGATDYTSSIDVWSAGCVLAELLLGQPIFPGDSGVDQLVEIIKVLGTPTREQIREMNPNYTEFKFPQIKAHPWTKDSSGTGHFTSGVRVFRPRTPPEAIALCSRLLEYTPTARLTPLEACAHSFFDELRDPNVKLPNGRDTPALFNFTTQELSSNPPLATILIPPHARIQAAASTPTNATAASDANTGDRGQTNNAASASASNST	60 ± 3 % of WTGSK-3β	49 ± 19 % of WTGSK-3β	41 ± 14 % of WTGSK-3β	–
D90A: GSK-3β mutant, D90 replaced by alanine (protein, GSK-3 beta, D90A mutant, GSK-3β mutant, D90 replaced by alanine) MSGRPRTTSFAESCKPVQQPSAFGSMKVSRDKDGSKVTTVVATPGQGPDRPQEVSYTDTKVIGNGSFGVVYQAKLCDSGELVAIKKVLQAKRFKNRELQIMRKLDHCNIVRLRYFFYSSGEKKDEVYLNLVLDYVPETVYRVARHYSRAKQTLPVIYVKLYMYQLFRSLAYIHSFGICHRDIKPQNLLLDPDTAVLKLCDFGSAKQLVRGEPNVSYICSRYYRAPELIFGATDYTSSIDVWSAGCVLAELLLGQPIFPGDSGVDQLVEIIKVLGTPTREQIREMNPNYTEFKFPQIKAHPWTKDSSGTGHFTSGVRVFRPRTPPEAIALCSRLLEYTPTARLTPLEACAHSFFDELRDPNVKLPNGRDTPALFNFTTQELSSNPPLATILIPPHARIQAAASTPTNATAASDANTGDRGQTNNAASASASNST	88 ± 15 % of WTGSK-3β	92 ± 21 % of WTGSK-3β	83 ± 2 % of WTGSK-3β	–

— patent US9688719B2, “Glycogen synthase kinase-3 inhibitors” (Ramot at Tel-Aviv University Ltd., priority 2011, dated 2017)
